Ends that are not written are not given here. * marks the point of attachment. Biotin = O=C1N[C@H]2[C@H](CS[C@H]2CCCCC(=O)*)N1
Key:
Assay in all cases: A/G assays
[1] = biological target: T1, GST-CASK PDZ domain fusion protein (mouse, UniProt O14936 485-575 (human entry))
T1 sequence: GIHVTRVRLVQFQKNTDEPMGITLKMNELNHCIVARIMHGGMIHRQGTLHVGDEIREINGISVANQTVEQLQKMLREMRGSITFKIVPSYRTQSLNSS

[2] = biological target: T2, GST-LIMK2 PDZ domain fusion protein (human, UniProt P53671 147-237)
T2 construct: also called human LIM domain kinase 2; not shown: glutathione S-transferase (GST) encoded by pGEX-3X
T2 sequence: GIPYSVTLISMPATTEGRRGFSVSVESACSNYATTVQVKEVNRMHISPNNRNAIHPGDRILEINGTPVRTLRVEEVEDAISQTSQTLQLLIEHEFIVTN

[3] = biological target: T3, GST-MPP2 PDZ domain fusion protein
T3 construct: also called maguk p55 subfamily member 2 (DLG2); MMP2; not shown: glutathione S-transferase (GST) encoded by pGEX-3X
T3 chain: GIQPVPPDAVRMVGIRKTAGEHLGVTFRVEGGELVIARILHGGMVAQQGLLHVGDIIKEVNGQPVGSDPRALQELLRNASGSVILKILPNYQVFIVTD

[4] = biological target: T4, GST-DVL1 PDZ domain fusion protein (human)
T4 construct: also called human dishevelled segment polarity protein homolog; not shown: glutathione S-transferase (GST) encoded by pGEX-3X
T4 chain: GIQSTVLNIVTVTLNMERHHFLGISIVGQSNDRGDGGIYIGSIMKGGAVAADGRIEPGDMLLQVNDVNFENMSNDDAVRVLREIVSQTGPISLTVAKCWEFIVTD

[5] = biological target: T5, GST-MINT3 PDZ domain fusion protein (human)
T5 construct: also called human MINT3; not shown: glutathione S-transferase (GST) encoded by pGEX-3X
T5 chain: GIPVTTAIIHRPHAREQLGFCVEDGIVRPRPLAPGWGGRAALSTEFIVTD

[6] = biological target: T6, GST-TAX2 PDZ domain fusion protein (human, UniProt O14908 129-216)
T6 construct: not shown: glutathione S-transferase (GST) encoded by pGEX-3X
T6 chain: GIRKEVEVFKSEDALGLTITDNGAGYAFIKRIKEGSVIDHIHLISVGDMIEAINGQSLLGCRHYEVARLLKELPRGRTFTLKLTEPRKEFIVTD

[7] = biological target: T7, GST-NeDLG PDZ domains 1-2 fusion protein (Mus musculus (Mouse), UniProt P70175 147-332)
T7 construct: also called NeDLG1; not shown: glutathione S-transferase (GST) encoded by pGEX-3X
T7 chain: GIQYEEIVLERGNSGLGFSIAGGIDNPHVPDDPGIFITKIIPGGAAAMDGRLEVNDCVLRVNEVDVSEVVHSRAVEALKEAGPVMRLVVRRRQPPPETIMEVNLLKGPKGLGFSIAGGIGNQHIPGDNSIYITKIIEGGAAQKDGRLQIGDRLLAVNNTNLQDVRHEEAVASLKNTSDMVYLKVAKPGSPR

[8] = biological target: T8, GST-SYN1a (alpha1-syntrophin) PDZ domain fusion protein (Homo sapiens (Human), UniProt Q13424 84-179)
T8 construct: also called SYN 1 α; not shown: glutathione S-transferase (GST) encoded by pGEX-3X
T8 sequence: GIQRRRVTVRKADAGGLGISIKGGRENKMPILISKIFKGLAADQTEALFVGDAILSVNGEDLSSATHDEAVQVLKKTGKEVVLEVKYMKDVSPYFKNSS

Measured: binding result

Biotin-PKQANGGAYQKPTKQEEFYA [CD138 (syndecan) C-terminal peptide AA18L]
no binding: all assays above

Source: US6942981
